The results in this text go back to US20140370035A1 (BIOVERATIV THERAPEUTICS, published 2014).

Data set [1] deals with T1, rBDD FVIII (recombinant B-domain deleted FVIII).
T1 sequence: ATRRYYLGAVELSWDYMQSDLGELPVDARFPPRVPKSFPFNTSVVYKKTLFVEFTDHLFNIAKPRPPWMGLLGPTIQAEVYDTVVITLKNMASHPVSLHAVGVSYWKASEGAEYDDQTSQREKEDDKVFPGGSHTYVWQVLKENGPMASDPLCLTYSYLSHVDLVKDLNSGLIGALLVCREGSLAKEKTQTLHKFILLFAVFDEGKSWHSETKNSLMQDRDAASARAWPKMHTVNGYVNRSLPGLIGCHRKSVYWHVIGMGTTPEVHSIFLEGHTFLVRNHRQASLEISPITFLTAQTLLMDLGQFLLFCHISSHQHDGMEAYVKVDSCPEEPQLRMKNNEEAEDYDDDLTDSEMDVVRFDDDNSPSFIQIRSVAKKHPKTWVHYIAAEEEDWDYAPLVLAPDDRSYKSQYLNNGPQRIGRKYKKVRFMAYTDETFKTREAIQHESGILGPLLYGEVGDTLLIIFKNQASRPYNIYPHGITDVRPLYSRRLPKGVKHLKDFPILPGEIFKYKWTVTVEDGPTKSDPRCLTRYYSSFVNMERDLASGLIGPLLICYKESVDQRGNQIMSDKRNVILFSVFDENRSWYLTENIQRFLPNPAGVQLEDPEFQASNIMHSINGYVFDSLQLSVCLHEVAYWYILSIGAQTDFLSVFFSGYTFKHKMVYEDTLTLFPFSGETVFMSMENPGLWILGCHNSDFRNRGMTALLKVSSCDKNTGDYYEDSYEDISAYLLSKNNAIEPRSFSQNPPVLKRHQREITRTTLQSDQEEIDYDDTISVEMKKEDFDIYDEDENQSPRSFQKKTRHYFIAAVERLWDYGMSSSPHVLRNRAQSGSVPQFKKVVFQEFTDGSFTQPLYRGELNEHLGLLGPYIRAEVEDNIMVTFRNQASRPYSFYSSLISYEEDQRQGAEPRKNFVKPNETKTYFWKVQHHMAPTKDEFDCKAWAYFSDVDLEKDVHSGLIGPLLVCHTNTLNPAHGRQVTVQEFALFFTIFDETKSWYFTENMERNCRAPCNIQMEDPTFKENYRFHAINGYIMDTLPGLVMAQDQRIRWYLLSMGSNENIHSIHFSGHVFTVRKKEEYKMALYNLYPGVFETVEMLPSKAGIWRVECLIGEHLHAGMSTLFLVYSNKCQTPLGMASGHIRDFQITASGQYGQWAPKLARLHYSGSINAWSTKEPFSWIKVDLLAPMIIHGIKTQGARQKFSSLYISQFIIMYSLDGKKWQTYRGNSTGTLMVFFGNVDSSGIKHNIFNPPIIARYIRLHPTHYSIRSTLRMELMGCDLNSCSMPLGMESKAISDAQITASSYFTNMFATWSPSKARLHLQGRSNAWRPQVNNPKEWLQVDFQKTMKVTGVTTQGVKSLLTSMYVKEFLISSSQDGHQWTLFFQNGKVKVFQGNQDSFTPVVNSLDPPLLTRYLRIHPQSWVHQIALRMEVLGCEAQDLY

Data set [2] has as its target single-chain canine FcRn (canine). Kind of data set: SPR (Biacore T100), steady state, pH 6.0; single-chain FcRn amine-coupled to CM5 chip, analyte at 0.0625-2000 nM. (In general: In SPR one partner is held on a chip, and binding of the other changes the refractive index at the surface.)
The target of data set [3] is single-chain human FcRn (human) (UniProt P55899). The description is as above.
single-chain human FcRn (human), sequence (P55899 24-297 limits assumed, form in doubt, chain 1 of 2): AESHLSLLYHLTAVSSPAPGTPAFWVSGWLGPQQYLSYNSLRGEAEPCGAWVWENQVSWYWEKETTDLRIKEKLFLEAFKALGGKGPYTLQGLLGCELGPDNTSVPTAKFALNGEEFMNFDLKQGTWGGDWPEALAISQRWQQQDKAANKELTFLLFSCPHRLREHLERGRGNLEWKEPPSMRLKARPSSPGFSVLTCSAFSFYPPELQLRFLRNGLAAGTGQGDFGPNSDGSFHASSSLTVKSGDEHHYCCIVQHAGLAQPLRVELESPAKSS
single-chain human FcRn (human), sequence (chain, as listed by the source limits assumed, form in doubt, chain 2 of 2): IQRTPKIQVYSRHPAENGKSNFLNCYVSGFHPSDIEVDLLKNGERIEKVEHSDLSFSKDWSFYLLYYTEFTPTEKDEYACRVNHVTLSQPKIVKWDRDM
In data set [4] the target is single-chain murine FcRn (mouse) (UniProt Q61559). The description is as above.
single-chain murine FcRn (mouse), sequence (Q61559 22-297 limits assumed, form in doubt, chain 1 of 2): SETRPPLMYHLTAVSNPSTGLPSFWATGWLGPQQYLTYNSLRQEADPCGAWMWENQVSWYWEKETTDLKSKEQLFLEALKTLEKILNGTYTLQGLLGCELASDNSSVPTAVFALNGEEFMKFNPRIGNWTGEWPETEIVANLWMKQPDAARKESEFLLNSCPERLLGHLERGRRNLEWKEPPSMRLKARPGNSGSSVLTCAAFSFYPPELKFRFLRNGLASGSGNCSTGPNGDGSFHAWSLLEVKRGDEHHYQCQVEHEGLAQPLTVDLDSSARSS
single-chain murine FcRn (mouse), sequence (chain, as listed by the source limits assumed, form in doubt, chain 2 of 2): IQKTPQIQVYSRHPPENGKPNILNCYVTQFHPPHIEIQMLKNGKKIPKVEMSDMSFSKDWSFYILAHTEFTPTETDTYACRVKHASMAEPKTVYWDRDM
For data set [5], the target named is T2, human von Willebrand factor (human, UniProt P04275 764-2813).
T2 construct: also called hvWf; vWF
Description: SPR (BIAcore); FVIII protein as analyte, hvWf as ligand; N=5. Here is the method: (§1) Kinetic rate parameters of Kₐ (on-rate) and Kd (off-rate), and the affinity KD (Kd/Kₐ), were determined for each FVIII interaction under identical conditions.

Data set [6] addresses T2, human von Willebrand factor. Description: SPR (BIAcore); FVIII protein as analyte, hvWf as ligand; N=5; KD = off-rate/on-rate. As for the experimental part: as §1

single-chain canine FcRn (canine), sequence (chain, as listed by the source, form in doubt): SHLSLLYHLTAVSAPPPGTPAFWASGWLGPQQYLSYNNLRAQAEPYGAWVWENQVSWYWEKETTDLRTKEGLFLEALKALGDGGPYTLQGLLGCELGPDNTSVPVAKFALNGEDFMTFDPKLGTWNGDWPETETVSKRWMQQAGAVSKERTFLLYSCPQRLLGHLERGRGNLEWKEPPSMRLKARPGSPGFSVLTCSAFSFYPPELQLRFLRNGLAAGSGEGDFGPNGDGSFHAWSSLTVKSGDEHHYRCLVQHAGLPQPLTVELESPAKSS

For activated protein C, the “normalized FXa generation rate following cleavage by APC (thrombin 30' = 100); shown without a number” value in data set [1] is listed as “'BDD FVIII' is one of the two lighter bars of each group (alike in the scan); both lighter bars: about 8-16 without thrombin, 100 after thrombin 30', not lowered after a further 15' with APC (about 108-111), fallen to about 18-27 after 90' with APC”.
For activated Factor IX, in data set [1], the Km (nM) (called Kd in the text): FXa generation rate against FIXa concentration, thrombin-activated FVIII protein on 25% PS-75% PC vesicles is 2.5 nM and the Vmax (nM/min): FXa generation rate against FIXa concentration is 4 nM/min.
As to Human IgG1 (antibody), the figures for the half-maximal effective concentration (EC50) in data set [2], in data set [3] and in data set [4] were 196 nM, 558 nM and less than 22.4 nM, respectively.

B1: rBDD FVIII (recombinant B-domain deleted FVIII) (other)
chain: ATRRYYLGAVELSWDYMQSDLGELPVDARFPPRVPKSFPFNTSVVYKKTLFVEFTDHLFNIAKPRPPWMGLLGPTIQAEVYDTVVITLKNMASHPVSLHAVGVSYWKASEGAEYDDQTSQREKEDDKVFPGGSHTYVWQVLKENGPMASDPLCLTYSYLSHVDLVKDLNSGLIGALLVCREGSLAKEKTQTLHKFILLFAVFDEGKSWHSETKNSLMQDRDAASARAWPKMHTVNGYVNRSLPGLIGCHRKSVYWHVIGMGTTPEVHSIFLEGHTFLVRNHRQASLEISPITFLTAQTLLMDLGQFLLFCHISSHQHDGMEAYVKVDSCPEEPQLRMKNNEEAEDYDDDLTDSEMDVVRFDDDNSPSFIQIRSVAKKHPKTWVHYIAAEEEDWDYAPLVLAPDDRSYKSQYLNNGPQRIGRKYKKVRFMAYTDETFKTREAIQHESGILGPLLYGEVGDTLLIIFKNQASRPYNIYPHGITDVRPLYSRRLPKGVKHLKDFPILPGEIFKYKWTVTVEDGPTKSDPRCLTRYYSSFVNMERDLASGLIGPLLICYKESVDQRGNQIMSDKRNVILFSVFDENRSWYLTENIQRFLPNPAGVQLEDPEFQASNIMHSINGYVFDSLQLSVCLHEVAYWYILSIGAQTDFLSVFFSGYTFKHKMVYEDTLTLFPFSGETVFMSMENPGLWILGCHNSDFRNRGMTALLKVSSCDKNTGDYYEDSYEDISAYLLSKNNAIEPRSFSQNPPVLKRHQREITRTTLQSDQEEIDYDDTISVEMKKEDFDIYDEDENQSPRSFQKKTRHYFIAAVERLWDYGMSSSPHVLRNRAQSGSVPQFKKVVFQEFTDGSFTQPLYRGELNEHLGLLGPYIRAEVEDNIMVTFRNQASRPYSFYSSLISYEEDQRQGAEPRKNFVKPNETKTYFWKVQHHMAPTKDEFDCKAWAYFSDVDLEKDVHSGLIGPLLVCHTNTLNPAHGRQVTVQEFALFFTIFDETKSWYFTENMERNCRAPCNIQMEDPTFKENYRFHAINGYIMDTLPGLVMAQDQRIRWYLLSMGSNENIHSIHFSGHVFTVRKKEEYKMALYNLYPGVFETVEMLPSKAGIWRVECLIGEHLHAGMSTLFLVYSNKCQTPLGMASGHIRDFQITASGQYGQWAPKLARLHYSGSINAWSTKEPFSWIKVDLLAPMIIHGIKTQGARQKFSSLYISQFIIMYSLDGKKWQTYRGNSTGTLMVFFGNVDSSGIKHNIFNPPIIARYIRLHPTHYSIRSTLRMELMGCDLNSCSMPLGMESKAISDAQITASSYFTNMFATWSPSKARLHLQGRSNAWRPQVNNPKEWLQVDFQKTMKVTGVTTQGVKSLLTSMYVKEFLISSSQDGHQWTLFFQNGKVKVFQGNQDSFTPVVNSLDPPLLTRYLRIHPQSWVHQIALRMEVLGCEAQDLY
notes: The commercial product is largely processed into heavy and light chains; also called XYNTHA
In the case of B1, in data set [5], the koff worked out at 0.00114 s⁻¹ and the on-rate (kon) worked out at 1.37e+06 M⁻¹ s⁻¹. In data set [6], this molecule showed a dissociation constant Kd of 0.846 nM.

In general, EC50 refers to the concentration giving half of the maximal effect. Broadly, the koff is the first-order rate constant of dissociation. One may read the kon as the second-order rate constant of association. A higher kon goes with faster complex formation. One may read the Kd as the constant that tells how readily two partners part at equilibrium. A higher Kd goes with a looser complex.
